Data as given in paper PMC8672344.
pKd: −log10 of the molar value.

Target: Y75H holo-HasAp (heme-loaded hemophore HasAp, Y75H variant) (Pseudomonas aeruginosa) (UniProt G3XD33)
Test: SPR

## HasR outer membrane receptor in styrene-maleic acid lipid nanodisc (HasR-SMALP)
  pKd: 6.40
